Measured values from paper doi:10.64898/2025.12.02.691841.

Molecular target: His5-MttP (MM_1691), DME family transporter of Methanosarcina mazei (Methanosarcina mazei)
Assay: SEC

| stoichiometry N | Substance |
| --- | --- |
| 1 | MttQ (MM_1692), small protein of Methanosarcina mazei (natural protein) |
| 1 | MttS (sORF05), small protein of Methanosarcina mazei (natural protein) |
